The text below walks through data of patent US20250066490A1, “ANTI-CD70 ANTIBODIES, CONJUGATES THEREOF AND METHODS OF USING THE SAME” (ProfoundBio US Co., priority 2021, published 2025).

In one data set the target is T1, CD70 ECD (Homo sapiens, UniProt P32970).
T1 sequence (P32970 39-193 limits assumed): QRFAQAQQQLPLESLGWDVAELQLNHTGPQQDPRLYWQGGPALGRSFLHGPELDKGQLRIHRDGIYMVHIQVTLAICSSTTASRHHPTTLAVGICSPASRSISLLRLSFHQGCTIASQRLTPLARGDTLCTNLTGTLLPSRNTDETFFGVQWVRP
In words: Biacore affinity measurement on immobilized CD70 ECD. Type of data set: binding. The following applies: 25° C., CD70 immobilized. As for the experimental part: The immobilization of antigen CD70 ECD was performed at 25° C. with HBS-EP as the running buffer. Sensor chip surface of flow cells 1, 4 were activated by freshly mixed 50 mmol/L N-Hydroxy succinimide (NHS) and 200 mmol/L 1-ethyl-3-(3-dimethylaminopropyl) carbodiimide hydrochloride (EDC) for 420s (10 μL/min). Afterwards, CD70 antigen diluted in 10 mmol/L NaAC (pH 4.5) was injected into flow cell 4 to achieve conjugation of the appropriate Response Unit, while flow cell 1 was set as a blank. After the amine coupling reaction, the remaining active coupling sites on chip surface were blocked by 420s injection of 1 mol/L ethanolamine hydrochloride.
The assay was performed at 25° C. and the running buffer was HBS-EP. Diluted antibodies were injected over the surface of flow cells 1 and 4 during the association phase, followed by injecting running buffer as the dissociation phase. All the data were processed using Biacore T200 Evaluation software version 3.1. Flow cell 1 and a blank injection of buffer in each cycle were used as a double reference for Response Units subtraction. Kinetic data of the interaction between the antibodies and CD70 antigen were obtained through affinity measurement.

A short description of data set [1]: Hydrophobic interaction chromatography (HIC). Type of data set: physicochemical. The following applies: full IgG; for Retention time: hydrophobicity by HIC. On the procedure: Antibodies were purified from cleared cell culture supernatants using Protein A chromatography (Protein A resin slurry, 4.5 mL, Bogen, Cat #18-0010-02). Briefly, supernatants were prepared for affinity chromatography and loaded onto the columns and allowed to flow completely through the resin. The columns were washed with binding buffer containing 0.15M NaCl and 0.2M PB, PH7.0. Antibody was eluted with elution buffer containing 0.15M NaCl, 0.1M Glycine and 0.2M PB, PH 3.0. Fractions were collected and neutralized by the addition of 1/10 volume of 1M Tris, PH9.0. The fractions were dialyzed for 2 hours against 1×PBS. Purified antibody was quantified by absorbance at A280. Samples from each step of the protein A chromatography were applied onto 12% SDS-PAGE gels for reduced and non-reduced electrophoresis. The hydrophobicity was assessed with hydrophobic interaction chromatography (HIC) on a TSK gel Butyl-NPR, 4.6×100 mm with Butyl-NPR (Tosoh corporation) using a Waters HPLC 2695 system.

For data set [2], the system named is 786-O, Caki-1, U251 and DBTRG-05MG cells. Nature of the data set: Antibody binding by flow cytometry, statements across all four tumor cell lines. Also noted: species or system human. The following applies: range over the four cell lines. On the procedure: The lead antibodies were tested for binding to renal carcinoma cells and glioblastoma cells expressing CD70 on the cell surface by flow cytometry. Cell lines 786-O (ATCC® CRL-1932™, provided by COBIOER), Caki-1 (ATCC® HTB-46™, provided by COBIOER), U251 and DBTRG-05MG (ATCC® CRL-2020™, provided by COBIOER) were each tested for antibody binding. 786-O cells were cultured with RPMI 1640 medium (Gibco, Cat #11875093) containing of 10% FBS (Gibco, Cat #10099141) while Caki-1 cells were cultured with McCoy's 5a Modified medium (Gibco, Cat #16600082) containing 10% FBS. U251 cells were cultured with MEM medium containing of 10% FBS and 1% NEAA+1 mM sodium pyruvate. DBTRG-05MG cells were cultured with DMEM medium (Gibco, Cat #C11995500BT) containing of 10% FBS. Each of the lead antibodies and the controls were incubated for 30 mins with the different cell lines (3×10^5 cells per well) in 0.2 ml FACS buffer (1×PBS with 0.1% BSA) at 4° C. Then, the cells were pelleted, washed, and incubated at 4° C. for 30 mins with 100 μl of 1:200 diluted PE-conjugated anti human Fc (Abcam, Ab98596) in FACS buffer. The cells were pelleted again, washed with PBS, resuspended in FACS buffer and analyzed by flow cytometer (Beckman, CytoFLEX).
On the technique in general: In flow cytometry, cells or beads pass a laser one at a time.

The target of data set [3] is T2, mouse CD70 extra-cellular domain (ECD) (Mus musculus, UniProt O55237).
T2 construct: human, rat, or mouse CD70 extra-cellular domain (ECD) linked to His tag; His tag; purchased ACRO systems
T2 sequence (O55237 45-195): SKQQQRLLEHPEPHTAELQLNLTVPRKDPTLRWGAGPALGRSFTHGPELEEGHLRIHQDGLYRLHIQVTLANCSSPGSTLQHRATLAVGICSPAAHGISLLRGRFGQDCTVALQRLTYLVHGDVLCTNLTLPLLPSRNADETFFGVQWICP
In words: Biolayer interferometry (BLI), mouse CD70. Type of data set: binding. On the procedure:
(§1) Recombinant proteins consisting of human, rat, or mouse CD70 extra-cellular domain (ECD) linked to His tag was purchased (from ACRO systems). 69A7 and 2E7 (20 nM) were immobilized on anti-human IgG Fc biosensor tips (ForteBio). Binding assays using one concentration (100 nM) of recombinant protein in solution were performed using Octet RED (ForteBio). Association time was set at 180s and dissociation time was set at 300s. Binding affinity was calculated using ForteBio Data Acquisition 6.3 software. Affinity was derived by fitting the kinetic data to a 1:1 Langmuir binding model utilizing global fitting algorithms. […] Binding assays for 2E7 using multiple dilutions (from 200 nM down to 3.13 nM) of species' recombinant CD70 ECD proteins in solution were also performed using the same method.
A general note: In BLI a coated tip is dipped into the sample, and binding shifts an interference pattern.

For data set [4], the target named is T3, rat CD70 extra-cellular domain (ECD) (Rattus norvegicus, UniProt M0R613).
T3 construct: human, rat, or mouse CD70 extra-cellular domain (ECD) linked to His tag; His tag; purchased ACRO systems
T3 sequence (M0R613 1-194): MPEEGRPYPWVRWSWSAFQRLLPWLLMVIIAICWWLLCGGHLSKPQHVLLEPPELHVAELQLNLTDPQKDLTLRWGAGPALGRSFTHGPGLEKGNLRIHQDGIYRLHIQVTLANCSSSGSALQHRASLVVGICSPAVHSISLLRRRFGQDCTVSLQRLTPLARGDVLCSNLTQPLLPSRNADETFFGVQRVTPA
Nature of the data set: Biolayer interferometry (BLI), rat CD70. Type of data set: binding. As for the experimental part:
as §1

Data set [5] addresses T4, human CD70 extra-cellular domain (ECD) (Homo sapiens, UniProt P32970).
T4 construct: human, rat, or mouse CD70 extra-cellular domain (ECD) linked to His tag; His tag; purchased ACRO systems
T4 sequence (P32970 39-193 limits assumed): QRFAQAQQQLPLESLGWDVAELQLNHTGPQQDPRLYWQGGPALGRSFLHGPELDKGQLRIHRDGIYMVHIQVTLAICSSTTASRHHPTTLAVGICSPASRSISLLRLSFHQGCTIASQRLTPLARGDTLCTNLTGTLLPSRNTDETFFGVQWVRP
In words: Biolayer interferometry (BLI), human CD70. The class given is binding. On the procedure:
as §1

[6] abbreviates: one concentration (100 nM), Table 9.
Where [7] appears, read: Hu CD70 100 nM, one concentration.

B1: Vorsetuzumab (antibody, V domains shown)
VH: QVQLVQSGAEVKKPGASVKVSCKASGYTFTNYGMNWVRQAPGQGLKWMGWINTYTGEPTYADAFKGRVTMTRDTSISTAYMELSRLRSDDTAVYYCARDYGDYGMDYWGQGTTVTVSS
VL: DIVMTQSPDSLAVSLGERATINCRASKSVSTSGYSFMHWYQQKPGQPPKLLIYLASNLESGVPDRFSGSGSGTDFTLTISSLQAEDVAVYYCQHSREVPWTFGQGTKVEIK
modifications: Synthetic h1F6 VH amino acid sequence; Synthetic h1F6 VL amino acid sequence
Consider B1, for which, in the data set with CD70 ECD, the “Rmax (RU)” value is listed as 19.27 RU, the “ka” value was 45100 M⁻¹ s⁻¹ and the “kd” value came out at 0.00236 s⁻¹.

B2: 2A4P0L1: new VH/VL combination derived from the VH of 2A4 and the VL of 2D2 (antibody, V domains shown)
VH: QVQLQESGPGLVKPSETLSLTCTVSGGSVSSDYYYWSWIRQPPGKGLEWLGYIYYSGSTNYNPSLKSRVTISVDTSKNQFSLKLRSVTTADTAVYYCARGDGDYGGNVFPYWGQGTLVTVSS
VL: EIVLTQSPATLSLSPGERATLSCRASQSVSSYLAWYQQKPGQAPRLLIFDASNRATGIPARFSGSGSGTDFTLTISSLEPEDFAVYYCQQRLKFPLTFGGGTKVEIK
B2: in data set [1] (HIC), the “hydrophobicity compared with the parent antibody 69A7” value is “slightly more hydrophobic than the parent antibody 69A7”. Besides, the “Retention time” value in data set [1] is recorded as 9.56 min. Besides, in the data set with CD70 ECD, the “Rmax (RU)” value is given as 45.47 RU, the “ka” value worked out at 51000 M⁻¹ s⁻¹ and the “kd” value stood at 0.00197 s⁻¹. For the same molecule, the “EC50 relative to that of antibody 69A7” value in data set [2] was 1.7-2.2 times.

B3: 69A7: parent anti-CD70 antibody (U.S. Pat. No. 8,124,738B2), VH/VL SEQ ID NOs: 1 and 2 (antibody, V domains shown)
VH: QVQLQESGPGLVKPSETLSLTCTVSGGSVSSDYYYWSWIRQPPGKGLEWLGYIYYSGSTNYNPSLKSRVTISVDTSKNQFSLKLRSVTTADTAVYYCARGDGDYGGNCFDYWGQGTLVTVSS
VL: EIVLTQSPATLSLSPGERATLSCRASQSVSSYLAWYQQKPGQAPRLLIFDASNRATGIPARFSGSGSGTDFTLTISSLEPEDFAVYYCQQRSNWPLTFGGGTKVEIK
modifications: Synthetic 69A7 VH amino acid sequence; Synthetic 69A7 VL amino acid sequence
As a reminder, the Kd is the equilibrium constant for the complex coming apart. Consider B3, for which the Response result was “*0.0113” in data set [3] (MS CD70 100 nM, one concentration, *Response below range of quantification); “*0.0198” in data set [4] (Rat CD70 100 nM, one concentration, *Response below range of quantification); 0.3334 in data set [5] (setting [7]). Further, the “ka” value came out at 1494 M⁻¹ s⁻¹ in data set [3] (MS CD70 100 nM, one concentration, response below range of quantification); 94250 M⁻¹ s⁻¹ in data set [4] (Rat CD70 100 nM, one concentration, response below range of quantification); 6330 M⁻¹ s⁻¹ with CD70 ECD; 338700 M⁻¹ s⁻¹ in data set [5] (setting [7]). Moreover, the “cross-reactivity to mouse CD70” value in data set [3] (setting [6]) is recorded as “no cross-reactivity”. The “Retention time” value in data set [1] is on record as 8.83 min. Moreover, in data set [4] (setting [6]), the “cross-reactivity to rat CD70” value is recorded as “no cross-reactivity”. For the same molecule, the “Rmax (RU)” value with CD70 ECD was determined as 38.01 RU. The “kd” value with CD70 ECD was determined as 0.00198 s⁻¹. Also, in data set [5] (human CD70, one concentration (100 nM), read-out: equilibrium dissociation constant (KD)), the Kd is 2.9 nM.

B4: 2A4: anti-CD70 antibody clone, VH SEQ 3 and VL SEQ 4; scFv and full human IgG1/kappa (antibody, V domains shown)
VH: QVQLQESGPGLVKPSETLSLTCTVSGGSVSSDYYYWSWIRQPPGKGLEWLGYIYYSGSTNYNPSLKSRVTISVDTSKNQFSLKLRSVTTADTAVYYCARGDGDYGGNVFPYWGQGTLVTVSS
VL: EIVLTQSPATLSLSPGERATLSCRASQSVSSYLAWYQQKPGQAPRLLIFDASNRATGIPARFSGSGSGTDFTLTISSLEPEDFAVYYCQQRSNWPLTFGGGTKVEIK
On to B4, for which the “Retention time” value in data set [1] is 9.06 min.
